Test [1] has as its target human NPR1 on CHO-K1 cells in the presence of ANP (human) (UniProt P01160). Put plainly: flow cytometry, hNPR1 CHO-K1 cells, IgG.
In test [2] the target is T1, rat NPR1 (rNPR1) (rat, UniProt P18910 29-469, limits assumed).
T1 construct: Soluble antigen
T1 sequence: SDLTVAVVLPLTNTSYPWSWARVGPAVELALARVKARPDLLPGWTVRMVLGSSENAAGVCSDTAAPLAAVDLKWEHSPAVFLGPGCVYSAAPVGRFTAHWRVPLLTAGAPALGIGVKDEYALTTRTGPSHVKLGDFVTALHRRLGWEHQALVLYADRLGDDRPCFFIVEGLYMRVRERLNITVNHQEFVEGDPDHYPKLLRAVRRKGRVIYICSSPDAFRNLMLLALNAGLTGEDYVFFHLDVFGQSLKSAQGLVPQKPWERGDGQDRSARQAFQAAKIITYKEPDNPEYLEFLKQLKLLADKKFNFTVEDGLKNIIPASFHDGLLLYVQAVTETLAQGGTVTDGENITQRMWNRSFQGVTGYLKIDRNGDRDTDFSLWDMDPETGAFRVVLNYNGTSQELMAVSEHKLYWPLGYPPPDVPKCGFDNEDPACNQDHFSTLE
Put plainly: ELISA, IgG titrated on coated antigen, fluorescence [Cont.]. (ELISA stands for enzyme-linked immunosorbent assay.)

The target of test [3] is W74R hNPR1 mutant in the presence of ANP (human) (UniProt P01160). Put plainly: ELISA, IgG.
Test [4] concerns the target constitutively active human NPR1 mutant (W74R) (human) (UniProt P16066). Put plainly: ELISA, IgG.
For test [5], the target named is T2, rNPR1-ANP complex (rat, UniProt P01160 124-151 (human entry), limits assumed).
T2 construct: rNPR1 antigen in the presence of ANP; also called rNPR1 + 100 nM ANP
T2 sequence: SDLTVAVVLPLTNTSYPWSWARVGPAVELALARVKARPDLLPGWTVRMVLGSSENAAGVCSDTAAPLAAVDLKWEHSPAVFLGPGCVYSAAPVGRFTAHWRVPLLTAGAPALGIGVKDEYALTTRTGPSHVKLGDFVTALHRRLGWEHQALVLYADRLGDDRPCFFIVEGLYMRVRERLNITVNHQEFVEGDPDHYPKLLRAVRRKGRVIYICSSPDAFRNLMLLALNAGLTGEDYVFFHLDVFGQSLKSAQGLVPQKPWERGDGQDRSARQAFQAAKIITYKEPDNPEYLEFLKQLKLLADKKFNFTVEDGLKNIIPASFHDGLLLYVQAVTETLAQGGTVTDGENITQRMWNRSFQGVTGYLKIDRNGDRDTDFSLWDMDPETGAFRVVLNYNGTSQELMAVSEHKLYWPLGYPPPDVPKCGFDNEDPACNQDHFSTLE
T2 sequence (peptide): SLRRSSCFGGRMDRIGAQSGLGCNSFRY
Put plainly: ELISA, IgG titrated on coated antigen with ANP (250 fold molar excess), fluorescence [Cont.].

The target of test [6] is T3, human NPR1 on CHO-K1 cells in the presence of ANP (human, UniProt P01160 124-151).
T3 construct: also called hNPR1 CHO K1 + 100 nM ANP
T3 sequence: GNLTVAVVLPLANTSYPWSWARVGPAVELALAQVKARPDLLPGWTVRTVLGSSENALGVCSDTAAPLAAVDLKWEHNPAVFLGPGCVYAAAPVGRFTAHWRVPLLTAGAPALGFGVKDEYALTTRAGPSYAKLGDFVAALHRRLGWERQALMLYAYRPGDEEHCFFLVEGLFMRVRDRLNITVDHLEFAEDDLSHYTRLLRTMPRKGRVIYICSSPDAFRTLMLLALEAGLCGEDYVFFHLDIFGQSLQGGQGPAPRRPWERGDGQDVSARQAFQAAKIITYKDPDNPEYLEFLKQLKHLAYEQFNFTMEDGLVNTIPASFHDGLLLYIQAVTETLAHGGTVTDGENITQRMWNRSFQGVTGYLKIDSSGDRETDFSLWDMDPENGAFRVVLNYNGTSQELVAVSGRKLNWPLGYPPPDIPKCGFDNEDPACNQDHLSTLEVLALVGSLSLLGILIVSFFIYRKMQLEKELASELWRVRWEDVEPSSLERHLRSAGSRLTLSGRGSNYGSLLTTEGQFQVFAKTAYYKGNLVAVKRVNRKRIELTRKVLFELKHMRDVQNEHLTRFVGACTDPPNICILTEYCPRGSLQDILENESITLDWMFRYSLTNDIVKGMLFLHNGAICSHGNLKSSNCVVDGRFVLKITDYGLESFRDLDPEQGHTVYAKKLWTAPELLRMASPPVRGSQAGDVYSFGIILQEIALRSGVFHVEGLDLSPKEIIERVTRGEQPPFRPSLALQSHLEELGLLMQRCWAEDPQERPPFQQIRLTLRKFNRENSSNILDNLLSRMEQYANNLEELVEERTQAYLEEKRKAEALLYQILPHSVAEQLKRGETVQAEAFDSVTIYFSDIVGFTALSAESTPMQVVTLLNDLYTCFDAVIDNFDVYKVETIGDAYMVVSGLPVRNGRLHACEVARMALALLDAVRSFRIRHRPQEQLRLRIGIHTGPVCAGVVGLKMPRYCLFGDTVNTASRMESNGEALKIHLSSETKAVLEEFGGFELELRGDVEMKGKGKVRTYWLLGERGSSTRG
T3 sequence (peptide): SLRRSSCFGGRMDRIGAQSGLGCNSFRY
Put plainly: flow cytometry (FL2-H) on hNPR1 CHO-K1 cells with saturating ANP, IgG titrated; control parental CHO-K1 [panel XX04]. (In general: A flow cytometer gives signals particle by particle.)

The target of test [7] is T3, human NPR1 on CHO-K1 cells in the …. Put plainly: flow cytometry (FL2-H) on hNPR1 CHO-K1 cells with saturating ANP, IgG titrated; control parental CHO-K1 [Cont.), panel YY04].
In test [8] the target is T4, hNPR1-ANP complex (human, UniProt P01160 124-151, limits assumed).
T4 construct: hNPR1 antigen in the presence of ANP; also called hNPR1 + 100 nM ANP
T4 sequence: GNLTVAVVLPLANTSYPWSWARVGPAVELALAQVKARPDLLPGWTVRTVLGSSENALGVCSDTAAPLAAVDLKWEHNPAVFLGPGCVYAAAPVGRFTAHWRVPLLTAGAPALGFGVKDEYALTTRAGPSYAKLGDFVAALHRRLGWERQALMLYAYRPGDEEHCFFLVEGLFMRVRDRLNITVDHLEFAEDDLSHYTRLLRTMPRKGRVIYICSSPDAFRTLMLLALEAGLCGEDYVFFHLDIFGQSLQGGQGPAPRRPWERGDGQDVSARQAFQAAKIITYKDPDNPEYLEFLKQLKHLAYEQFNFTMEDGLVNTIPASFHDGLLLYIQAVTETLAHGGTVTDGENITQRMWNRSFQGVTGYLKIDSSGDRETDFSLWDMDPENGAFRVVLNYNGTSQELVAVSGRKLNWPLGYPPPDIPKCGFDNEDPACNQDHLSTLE
T4 sequence (peptide): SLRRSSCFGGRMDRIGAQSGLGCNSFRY
Put plainly: ELISA, 1 µM IgG. Details: unit not given here.

For test [9], the target named is T2, rNPR1-ANP complex. In words: ELISA, 1 µM IgG. Details: unit not given here.
In test [10] the target is T3, human NPR1 on CHO-K1 cells in the …. In words: flow cytometry, hNPR1 CHO-K1 cells, IgG.
The target is the same in test [11]. In words: flow cytometry (FL2-H) on hNPR1 CHO-K1 cells with saturating ANP, IgG titrated; control parental CHO-K1 [Cont.), panel XX08].
Test [12] addresses T5, human Natriuretic Peptide Receptor 1 (hNPR1) (human, UniProt P16066 33-473, limits assumed).
T5 construct: pannings used NPR1-hFc; also called NPR1-hFc
T5 sequence: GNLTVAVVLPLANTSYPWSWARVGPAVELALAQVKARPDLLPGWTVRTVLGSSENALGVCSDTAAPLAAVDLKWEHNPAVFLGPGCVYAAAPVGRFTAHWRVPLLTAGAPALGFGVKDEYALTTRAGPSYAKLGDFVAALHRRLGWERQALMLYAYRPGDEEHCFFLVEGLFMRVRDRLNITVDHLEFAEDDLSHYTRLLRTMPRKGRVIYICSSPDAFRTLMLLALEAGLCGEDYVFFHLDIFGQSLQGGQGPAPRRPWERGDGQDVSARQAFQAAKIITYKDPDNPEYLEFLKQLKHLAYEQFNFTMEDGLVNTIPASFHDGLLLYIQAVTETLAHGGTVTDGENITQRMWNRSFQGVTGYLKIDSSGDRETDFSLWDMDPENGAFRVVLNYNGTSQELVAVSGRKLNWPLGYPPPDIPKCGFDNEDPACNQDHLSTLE
In words: ELISA, IgG titrated on coated antigen, fluorescence [Cont.].

For test [13], the target named is T1, rat NPR1 (rNPR1). Described as above. The source holds these as a separate data set.
The target in test [14] is T3, human NPR1 on CHO-K1 cells in the …. Put plainly: flow cytometry (FL2-H) on hNPR1 CHO-K1 cells with saturating ANP, IgG titrated; control parental CHO-K1 [panel XX01].
Test [15] concerns the target T4, hNPR1-ANP complex. Put plainly: FRET ANP competition assay, IgG titrated on hNPR1 with Cy5-labeled ANP; negative values mean more ANP signal [panel XX01]. Here is the method: The same 31 IgGs were tested for ANP competition using a Fluorescence Resonance Energy Transfer (FRET)-based assay in which the NPR1-specific antibodies competed with ANP for binding to NPR1. In this FRET based assay (see FIG. 3), Eu-labeled Streptavidin (for measurement of IgGs) or Eu-labeled anti-hFc antibody (for measurement of FabCys) was used as an energy donor, while Cy5-labeled ANP was used as an acceptor (for all measurements). The resulting fluorescent signal was decreased by ANP-competitive antibodies. The assay was performed as follows: antibodies were mixed with NPR1 and incubated for 5 minutes at room temperature. After addition of the Eu-labeled donor and incubation for 30 minutes at room temperature, the Cy5-ANP solution was added. After a further 60-minute incubation, readout was performed using a TECAN Infinite M1000 Pro using an excitation wavelength of 317 nm and an emission wavelength of 665 nm. Percentage of ANP competition was calculated according to the following formulae: […]

B1: WW06 (IgG format) (antibody, V domains shown)
VH: QVQLVQSGAEVKKPGESLKISCKGSGYSFTSYWIAWVRQMPGKGLEWMGRIDPDNSYTRYSPSFQGQVTISADKSISTAYLQWSSLKASDTAMYYCARWLSPGYALGEQPAGMDHWGQGTLVTVSS
VL: DIVLTQPPSVSGAPGQRVTISCTGSSSNIGAGYAVHWYQQLPGTAPKLLIYSNNKRPSGVPDRFSGSKSGTSASLAITGLQAEDEADYYCQSYDLQKSSRVFGGGTKLTVLG
notes: also called WW06_LALA
With B1, the flow cytometry S/BG at 2 µM IgG in [1] came to 1.1 S/BG. The binding result in [2] and in [5] was “no binding (tested: 1000 nM)” in each case. Also, the EC50 in test [3] worked out at 0.8 nM; in test [4] it was 0.9 nM.

B2: XX04 (IgG format) (antibody, V domains shown)
VH: QVQLLESGGGLVQPGGSLRLSCAASGFTFSSYWMNWVRQAPGKGLEWVSAISSDGSYTYYADSVKGRFTISRDNSKNTLYLQMNSLRAEDTAVYYCARDRYSMIYSYGAGAFDYWGQGTLVTVSS
VL: DIQMTQSPSSLSASVGDRVTITCRASQGISSYLAWYQQKPGKAPKLLIYTASTLQSGVPSRFSGSGSGTDFTLTISSLQPEDFATYYCQQEWVKPRTFGQGTKVEIK
As to B2, in [6], the “EC50 (read off the curve)” value is around 2 nM.

B3: YY04 (IgG format) (antibody, V domains shown)
VH: EVQLVESGGGLVKPGGSLRLSCAASGFTFSNYWISWVRQAPGKGLEWVGRIKSKTYGGTTDYAEPVKGRFTISRDDSKNTLYLQMNSLKTEDTAVYYCAREKYSIRARGHGDYGFDVWGQGTLVTVSS
VL: DIQMTQSPSSLSASVGDRVTITCRASQGISNYLAWYQQKPGKVPKLLIYAASTLQSGVPSRFSGSGSGTDFTLTISSLQPEDVATYYCQQGYHAPFTFGQGTKVEIKR
notes: also called YY04_LALA
Regarding B3, the “EC50 (read off the curve)” value in test [7] was around 0.2 nM. The “ELISA binding at 1 µM IgG” value was determined as 60 in test [8] and 54 in test [9]. Further, in [10], the “flow cytometry S/BG at 1 µM IgG” value turned out to be 33 S/BG.

B4: XX08 (antibody, V domains shown)
VH: EVQLLESGGGLVQPGGSLRLSCAASGFTFNTHYIHWVRQAPGKGLEWVSSIGGQGGMTLYADSVKGRFTISRDNSKNTLYLQMNSLRAEDTAVYYCARERGYVYYHMFDPWGQGTLVTVSS
VL: DIVLTQSPATLSLSPGERATLSCRASQSITRNYLAWYQQKPGQAPRLLIYGASSRATGIPARFSGSGSGTDFTLTISSLEPEDFAVYYCQQHSMYPRTFGQGTKVEIKR
notes: x axis reads IgG conc; [nM]; also called XX08 (IgG format)
With B4, the “EC50 (read off the curve)” value in test [11] is around 2 nM; in test [12] it was around 20 nM; in test [13] it was around 20 nM.

B5: XX01 (IgG format) (antibody, V domains shown)
VH: EVQLLESGGGLVQPGGSLRLSCAASGFTFNTHYIHWVRQAPGKGLEWVSSISSSGQSTYYADSVKGRFTISRDNSKNTLYLQMNSLRAEDTAVYYCARERGYVYYHMFDPWGQGTLVTVSS
VL: DIVLTQSPATLSLSPGERATLSCRASQSITRNYLAWYQQKPGQAPRLLIYGASSRATGIPARFSGSGSGTDFTLTISSLEPEDFAVYYCQQHSMYPRTFGQGTKVEIK
B5: the “EC50 (read off the curve)” value in test [14] was around 0.8 nM; in test [15], around 0.1 nM.

Broadly, the EC50 is the midpoint of the concentration-response curve. In general, EC50 (read off the curve) refers to the concentration at which the effect is half-maximal.
